One molecule from patent US20260139035A1 can be followed below.

The test addresses spike proteins of SARS-CoV-2 variants (614G, Alpha, Beta, Gamma, Delta, Kappa, Lambda, Mu, BA.1, BA.). The experiment in a line: cell-based or functional assay.

B1: 3-1 antibody (antibody, V domains shown)
VH: EVQLVQSGAEVKKPGESLKISCKGSGYIFTNYWIGWVRQMPGKGLEWMGIINPRDSDTRYSPSFQGQVTISTDKSINTAYLQWSSLKASDTAMYYCARQQGGFGDLGAYNWFDPWGQGTLVTVSS
VL: not shown
Molecule B1 came in with an IC50, pseudovirus neutralization below 0.25 µg/mL.
